Experimental data: PMC13436963

Legend:
[1] = target: EGFP-tagged full-length Drosophila Notch [Drosophila melanogaster]; experiment: luciferase-coupled co-immunoprecipitation (GFP-trap); details: S2 cells, Notch-GFP WT, n=4, parent: 1, read off a plot
[2] = target: T1, Drosophila Notch LNR domain F1563A fused to split firefly luciferase fragments, P07207; experiment: split-luciferase complementation assay; details: chain shown with the change; S2 cells; bar labelled 'F1563A + F1563A'; n=5; parent: 1.0; read off a plot
T1 chain: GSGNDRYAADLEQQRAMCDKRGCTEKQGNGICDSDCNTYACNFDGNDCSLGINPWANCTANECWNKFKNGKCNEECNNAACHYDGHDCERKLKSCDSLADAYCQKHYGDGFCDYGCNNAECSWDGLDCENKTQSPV

[3] = target: T2, Drosophila Notch LNR domain H1570A fused to split firefly luciferase fragments, P07207; experiment: split-luciferase complementation assay; details: chain shown with the change; S2 cells; bar labelled 'H1570A + H1570A'; n=5; parent: 1.0; read off a plot
T2 chain: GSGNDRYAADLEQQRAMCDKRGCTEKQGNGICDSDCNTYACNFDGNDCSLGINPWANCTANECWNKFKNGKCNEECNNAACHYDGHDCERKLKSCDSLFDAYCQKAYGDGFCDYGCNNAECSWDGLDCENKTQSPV

For “luciferase-tagged Drosophila Notch LNR domain (residues G1465 to V1600) mutant F1563A [Drosophila melanogaster] / EGFP-tagged full-length Drosophila Notch [Drosophila melanogaster] chain 1 F99A”, the ratio to parent ([1]; LNR-Luc F1563A) was 1.1.

“luciferase-tagged Drosophila Notch LNR domain (residues G1465 to V1600) mutant H1570A [Drosophila melanogaster] / EGFP-tagged full-length Drosophila Notch [Drosophila melanogaster] chain 1 H106A” showed a ratio to parent ([1]; LNR-Luc H1570A) of 0.97.

B1: Drosophila Notch LNR domain fused to split firefly luciferase fragments (LNR–NLuc and LNR–CLuc), P07207 F1563A (N-Luc copy); F1563A (C-Luc copy) (protein)
chain: GSGNDRYAADLEQQRAMCDKRGCTEKQGNGICDSDCNTYACNFDGNDCSLGINPWANCTANECWNKFKNGKCNEECNNAACHYDGHDCERKLKSCDSLADAYCQKHYGDGFCDYGCNNAECSWDGLDCENKTQSPV
In the case of B1, the ratio to parent [2] is reported as 0.96.

B2: Drosophila Notch LNR domain fused to split firefly luciferase fragments (LNR–NLuc and LNR–CLuc), P07207 H1570A (N-Luc copy); H1570A (C-Luc copy) (protein)
chain: GSGNDRYAADLEQQRAMCDKRGCTEKQGNGICDSDCNTYACNFDGNDCSLGINPWANCTANECWNKFKNGKCNEECNNAACHYDGHDCERKLKSCDSLFDAYCQKAYGDGFCDYGCNNAECSWDGLDCENKTQSPV
Molecule B2 has a ratio to parent [3] of 0.87.
